The assay concerns the target VP1(289A)-Flag (enterovirus A71 (C4)). The experiment in a line: co-IP.

For the substance “Vimentin (VIM) (from UniProt P08670 1-466) (natural protein)”, the fold VIM pulled down, against VP1(289T)-Flag worked out at 1.6 fold.

For the origin of these results see paper PMC6563288.
